Laboratory results taken from patent EP0808367B1 (MILLENNIUM PHARMACEUTICALS, INC., dated 2007).

What was measured:
human α4β7 integrin [1] = target: T1, human α4β7 integrin (human, UniProt P13612 34-1032; P26010 20-798); test: RPMI 8866 adhesion to chimera on protein A plate; supernatant 1:32; preincubated with blocking anti-human MAdCAM MAb 10G3 (+); settings: scale: raw fluorescence
T1 construct: whole, on cells; also called α4β7 on RPMI 8866 cells; α4β7 on HuT 78 cells

human α4β7 integrin [2] = target: T1, human α4β7 integrin; test: RPMI 8866 adhesion to chimera on protein A plate; supernatant 1:2; preincubated with control anti-VCAM-1 MAb 2G7 (-); settings: scale: raw fluorescence
human α4β7 integrin [3] = target: T1, human α4β7 integrin; test: RPMI 8866 adhesion to chimera on protein A plate; supernatant neat; preincubated with control anti-VCAM-1 MAb 2G7 (-); settings: scale: raw fluorescence
human α4β7 integrin [4] = target: T1, human α4β7 integrin; test: RPMI 8866 adhesion to chimera on protein A plate; supernatant 1:16; preincubated with blocking anti-human MAdCAM MAb 10G3 (+); settings: scale: raw fluorescence
human α4β7 integrin [5] = target: T1, human α4β7 integrin; test: RPMI 8866 adhesion to chimera on protein A plate; supernatant 1:8; preincubated with control anti-VCAM-1 MAb 2G7 (-); settings: scale: raw fluorescence
human α4β7 integrin [6] = target: T1, human α4β7 integrin; test: RPMI 8866 adhesion to chimera on protein A plate; supernatant neat; preincubated with blocking anti-human MAdCAM MAb 10G3 (+); settings: scale: raw fluorescence
human α4β7 integrin [7] = target: T1, human α4β7 integrin; test: RPMI 8866 adhesion to chimera on protein A plate; supernatant 1:4; preincubated with blocking anti-human MAdCAM MAb 10G3 (+); settings: scale: raw fluorescence
human α4β7 integrin [8] = target: T1, human α4β7 integrin; test: RPMI 8866 adhesion to chimera on protein A plate; supernatant 1:2; preincubated with blocking anti-human MAdCAM MAb 10G3 (+); settings: scale: raw fluorescence
human α4β7 integrin [9] = target: T1, human α4β7 integrin; test: RPMI 8866 adhesion to chimera on protein A plate; supernatant 1:4; preincubated with control anti-VCAM-1 MAb 2G7 (-); settings: scale: raw fluorescence
human α4β7 integrin [10] = target: T1, human α4β7 integrin; test: RPMI 8866 adhesion to chimera on protein A plate; supernatant 1:32; preincubated with control anti-VCAM-1 MAb 2G7 (-); settings: scale: raw fluorescence
human α4β7 integrin [11] = target: T1, human α4β7 integrin; test: RPMI 8866 adhesion to chimera on protein A plate; supernatant 1:8; preincubated with blocking anti-human MAdCAM MAb 10G3 (+); settings: scale: raw fluorescence
human α4β7 integrin [12] = target: T1, human α4β7 integrin; test: RPMI 8866 adhesion to chimera on protein A plate; supernatant 1:16; preincubated with control anti-VCAM-1 MAb 2G7 (-); settings: scale: raw fluorescence
human α4β7 integrin [13] = target: T1, human α4β7 integrin; test: RPMI 8866 adhesion to chimera on protein A plate; chimera 1:4; preincubated with blocking anti-human MAdCAM MAb 10G3 (+); settings: scale: raw fluorescence
human α4β7 integrin [14] = target: T1, human α4β7 integrin; test: RPMI 8866 adhesion to chimera on protein A plate; chimera 1:2; preincubated with blocking anti-human MAdCAM MAb 10G3 (+); settings: scale: raw fluorescence
human α4β7 integrin [15] = target: T1, human α4β7 integrin; test: RPMI 8866 adhesion to chimera on protein A plate; chimera 1:4; preincubated with control anti-VCAM-1 MAb 2G7 (-); settings: scale: raw fluorescence
human α4β7 integrin [16] = target: T1, human α4β7 integrin; test: RPMI 8866 adhesion to chimera on protein A plate; chimera 1:16; preincubated with control anti-VCAM-1 MAb 2G7 (-); settings: scale: raw fluorescence
human α4β7 integrin [17] = target: T1, human α4β7 integrin; test: RPMI 8866 adhesion to chimera on protein A plate; chimera 1:8; preincubated with blocking anti-human MAdCAM MAb 10G3 (+); settings: scale: raw fluorescence
human α4β7 integrin [18] = target: T1, human α4β7 integrin; test: RPMI 8866 adhesion to chimera on protein A plate; chimera neat; preincubated with blocking anti-human MAdCAM MAb 10G3 (+); settings: scale: raw fluorescence
human α4β7 integrin [19] = target: T1, human α4β7 integrin; test: RPMI 8866 adhesion to chimera on protein A plate; chimera 1:8; preincubated with control anti-VCAM-1 MAb 2G7 (-); settings: scale: raw fluorescence
human α4β7 integrin [20] = target: T1, human α4β7 integrin; test: RPMI 8866 adhesion to chimera on protein A plate; chimera 1:2; preincubated with control anti-VCAM-1 MAb 2G7 (-); settings: scale: raw fluorescence
human α4β7 integrin [21] = target: T1, human α4β7 integrin; test: RPMI 8866 adhesion to chimera on protein A plate; chimera 1:32; preincubated with control anti-VCAM-1 MAb 2G7 (-); settings: scale: raw fluorescence
human α4β7 integrin [22] = target: T1, human α4β7 integrin; test: RPMI 8866 adhesion to chimera on protein A plate; chimera neat; preincubated with control anti-VCAM-1 MAb 2G7 (-); settings: scale: raw fluorescence
human α4β7 integrin [23] = target: T1, human α4β7 integrin; test: RPMI 8866 adhesion to chimera on protein A plate; chimera 1:32; preincubated with blocking anti-human MAdCAM MAb 10G3 (+); settings: scale: raw fluorescence
human α4β7 integrin [24] = target: T1, human α4β7 integrin; test: RPMI 8866 adhesion to chimera on protein A plate; chimera 1:16; preincubated with blocking anti-human MAdCAM MAb 10G3 (+); settings: scale: raw fluorescence
human α4β7 integrin [25] = target: T1, human α4β7 integrin; test: RPMI 8866 adhesion to CHO/P transfectants, 4°C
human α4β1 integrin = target: T2, human α4β1 integrin (human, UniProt P13612 34-1032; P05556 21-798); test: Figure 4B: Jurkat adhesion to CHO/P transfectants
T2 construct: whole, on cells; Carried by Jurkat and Ramos cells, which express α4β1 and not α4β7; also called α4β1 on Jurkat cells; α4β1 on Ramos cells

human α4β7 integrin [26] = target: T1, human α4β7 integrin; test: cell adhesion assay, CHO/P transfectants

T1 sequence (P13612 34-1032, chain 1 of 2): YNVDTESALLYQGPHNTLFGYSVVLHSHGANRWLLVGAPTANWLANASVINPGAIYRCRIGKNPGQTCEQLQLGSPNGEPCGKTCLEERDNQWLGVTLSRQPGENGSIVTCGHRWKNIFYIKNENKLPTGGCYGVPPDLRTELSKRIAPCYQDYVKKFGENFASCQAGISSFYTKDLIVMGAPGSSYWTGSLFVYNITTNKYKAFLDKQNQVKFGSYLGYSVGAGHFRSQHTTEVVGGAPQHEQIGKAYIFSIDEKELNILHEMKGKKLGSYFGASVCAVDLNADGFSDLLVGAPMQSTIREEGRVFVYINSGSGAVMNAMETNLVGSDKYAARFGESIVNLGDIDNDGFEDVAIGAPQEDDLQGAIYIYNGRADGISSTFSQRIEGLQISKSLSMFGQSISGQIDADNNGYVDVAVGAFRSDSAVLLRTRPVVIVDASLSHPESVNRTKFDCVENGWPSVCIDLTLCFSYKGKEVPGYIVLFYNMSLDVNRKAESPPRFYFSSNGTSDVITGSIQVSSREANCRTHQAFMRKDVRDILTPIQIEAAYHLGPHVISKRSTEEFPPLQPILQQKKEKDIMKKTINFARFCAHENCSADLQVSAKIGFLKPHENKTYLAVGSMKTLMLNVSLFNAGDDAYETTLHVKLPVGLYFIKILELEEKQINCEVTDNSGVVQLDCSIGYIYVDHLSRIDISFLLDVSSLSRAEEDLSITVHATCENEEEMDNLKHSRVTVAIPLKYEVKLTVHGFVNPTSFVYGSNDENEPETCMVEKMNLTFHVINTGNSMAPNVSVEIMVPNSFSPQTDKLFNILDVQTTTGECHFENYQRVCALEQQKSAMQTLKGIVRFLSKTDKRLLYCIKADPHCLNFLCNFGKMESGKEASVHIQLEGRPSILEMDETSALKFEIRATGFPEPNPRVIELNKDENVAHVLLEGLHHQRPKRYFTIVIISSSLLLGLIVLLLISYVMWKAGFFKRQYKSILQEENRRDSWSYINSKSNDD
T1 sequence (P26010 20-798, chain 2 of 2): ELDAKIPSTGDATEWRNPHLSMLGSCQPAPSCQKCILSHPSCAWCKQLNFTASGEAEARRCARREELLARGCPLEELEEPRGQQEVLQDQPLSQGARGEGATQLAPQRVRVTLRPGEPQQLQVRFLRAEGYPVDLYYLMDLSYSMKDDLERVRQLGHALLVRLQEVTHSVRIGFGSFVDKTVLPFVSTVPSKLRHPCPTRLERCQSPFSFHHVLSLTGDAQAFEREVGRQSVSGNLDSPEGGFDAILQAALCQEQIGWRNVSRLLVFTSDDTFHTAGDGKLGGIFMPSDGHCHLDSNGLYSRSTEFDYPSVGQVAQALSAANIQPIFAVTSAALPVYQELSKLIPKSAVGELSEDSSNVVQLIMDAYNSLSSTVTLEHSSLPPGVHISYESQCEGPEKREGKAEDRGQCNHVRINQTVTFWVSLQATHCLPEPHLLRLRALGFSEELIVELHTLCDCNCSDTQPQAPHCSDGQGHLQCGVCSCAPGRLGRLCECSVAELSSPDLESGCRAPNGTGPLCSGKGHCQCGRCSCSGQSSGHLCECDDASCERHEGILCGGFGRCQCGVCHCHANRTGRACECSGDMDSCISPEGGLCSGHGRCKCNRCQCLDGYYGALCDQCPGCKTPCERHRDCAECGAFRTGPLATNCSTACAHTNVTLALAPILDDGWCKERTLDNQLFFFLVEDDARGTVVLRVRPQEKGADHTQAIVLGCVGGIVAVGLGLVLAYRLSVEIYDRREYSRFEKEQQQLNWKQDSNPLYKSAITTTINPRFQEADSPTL
T2 sequence (P13612 34-1032, chain 1 of 2): as the sequence (P13612 34-1032, chain 1 of 2) above
T2 sequence (P05556 21-798, chain 2 of 2): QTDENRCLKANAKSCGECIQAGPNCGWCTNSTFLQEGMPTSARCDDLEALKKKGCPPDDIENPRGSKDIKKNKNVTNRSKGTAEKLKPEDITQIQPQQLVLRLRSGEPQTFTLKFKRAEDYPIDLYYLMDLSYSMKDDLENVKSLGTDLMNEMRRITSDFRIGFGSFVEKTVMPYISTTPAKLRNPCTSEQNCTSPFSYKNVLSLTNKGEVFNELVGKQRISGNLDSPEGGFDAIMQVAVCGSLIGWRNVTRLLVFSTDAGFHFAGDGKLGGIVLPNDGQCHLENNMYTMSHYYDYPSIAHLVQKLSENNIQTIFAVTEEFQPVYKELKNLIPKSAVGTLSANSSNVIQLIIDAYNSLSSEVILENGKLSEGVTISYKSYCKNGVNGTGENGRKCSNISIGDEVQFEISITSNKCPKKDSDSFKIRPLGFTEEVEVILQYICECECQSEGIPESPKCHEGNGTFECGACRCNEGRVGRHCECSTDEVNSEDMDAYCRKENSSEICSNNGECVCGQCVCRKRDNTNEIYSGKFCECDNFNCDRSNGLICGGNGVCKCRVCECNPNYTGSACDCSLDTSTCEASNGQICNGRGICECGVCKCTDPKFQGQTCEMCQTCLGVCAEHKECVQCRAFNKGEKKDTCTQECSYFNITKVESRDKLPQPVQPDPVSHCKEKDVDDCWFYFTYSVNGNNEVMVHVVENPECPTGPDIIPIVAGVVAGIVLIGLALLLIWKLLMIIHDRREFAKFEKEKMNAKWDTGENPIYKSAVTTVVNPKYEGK

## human MAdCAM-Ig chimera in the supernatant of a cloned NSO line, Sample B (Fc fusion)
Human α4β7 integrin [1]
  fluorescence of bound RPMI 8866 cells: 1520
Human α4β7 integrin [2]
  fluorescence of bound RPMI 8866 cells: 196000
Human α4β7 integrin [3]
  fluorescence of bound RPMI 8866 cells: 196000
Human α4β7 integrin [4]
  fluorescence of bound RPMI 8866 cells: 1650
Human α4β7 integrin [5]
  fluorescence of bound RPMI 8866 cells: 196000
Human α4β7 integrin [6]
  fluorescence of bound RPMI 8866 cells: 6530
Human α4β7 integrin [7]
  fluorescence of bound RPMI 8866 cells: 3270
Human α4β7 integrin [8]
  fluorescence of bound RPMI 8866 cells: 3630
Human α4β7 integrin [9]
  fluorescence of bound RPMI 8866 cells: 196000
Human α4β7 integrin [10]
  fluorescence of bound RPMI 8866 cells: 2930
Human α4β7 integrin [11]
  fluorescence of bound RPMI 8866 cells: 2980
Human α4β7 integrin [12]
  fluorescence of bound RPMI 8866 cells: 52100

## human MAdCAM-Ig chimera, construct HuMAdIg21 (entire extracellular domain of human MAdCAM-1 fused to Fc-mutated human IgG1 constant region) (from UniProt P01857 1-330) (Fc fusion)
Human α4β7 integrin [13]
  fluorescence of bound RPMI 8866 cells: 1750
Human α4β7 integrin [14]
  fluorescence of bound RPMI 8866 cells: 3090
Human α4β7 integrin [15]
  fluorescence of bound RPMI 8866 cells: 196000
Human α4β7 integrin [16]
  fluorescence of bound RPMI 8866 cells: 4250
Human α4β7 integrin [17]
  fluorescence of bound RPMI 8866 cells: 2200
Human α4β7 integrin [18]
  fluorescence of bound RPMI 8866 cells: 3860
Human α4β7 integrin [19]
  fluorescence of bound RPMI 8866 cells: 18600
Human α4β7 integrin [20]
  fluorescence of bound RPMI 8866 cells: 196000
Human α4β7 integrin [21]
  fluorescence of bound RPMI 8866 cells: 3560
Human α4β7 integrin [22]
  fluorescence of bound RPMI 8866 cells: 196000
Human α4β7 integrin [23]
  fluorescence of bound RPMI 8866 cells: 564
Human α4β7 integrin [24]
  fluorescence of bound RPMI 8866 cells: 482

## human MAdCAM-Ig chimera in the supernatant of a cloned NSO line, Sample C (Fc fusion)
Human α4β7 integrin [1]
  fluorescence of bound RPMI 8866 cells: 2570
Human α4β7 integrin [2]
  fluorescence of bound RPMI 8866 cells: 196000
Human α4β7 integrin [3]
  fluorescence of bound RPMI 8866 cells: 196000
Human α4β7 integrin [4]
  fluorescence of bound RPMI 8866 cells: 2440
Human α4β7 integrin [5]
  fluorescence of bound RPMI 8866 cells: 9570
Human α4β7 integrin [6]
  fluorescence of bound RPMI 8866 cells: 4570
Human α4β7 integrin [7]
  fluorescence of bound RPMI 8866 cells: 3920
Human α4β7 integrin [8]
  fluorescence of bound RPMI 8866 cells: 4090
Human α4β7 integrin [9]
  fluorescence of bound RPMI 8866 cells: 35500
Human α4β7 integrin [10]
  fluorescence of bound RPMI 8866 cells: 1930
Human α4β7 integrin [11]
  fluorescence of bound RPMI 8866 cells: 3490
Human α4β7 integrin [12]
  fluorescence of bound RPMI 8866 cells: 21800

## human MAdCAM-Ig chimera in the supernatant of a cloned NSO line, Sample D (Fc fusion)
Human α4β7 integrin [1]
  fluorescence of bound RPMI 8866 cells: 5120
Human α4β7 integrin [2]
  fluorescence of bound RPMI 8866 cells: 30800
Human α4β7 integrin [3]
  fluorescence of bound RPMI 8866 cells: 196000
Human α4β7 integrin [4]
  fluorescence of bound RPMI 8866 cells: 6550
Human α4β7 integrin [5]
  fluorescence of bound RPMI 8866 cells: 16300
Human α4β7 integrin [6]
  fluorescence of bound RPMI 8866 cells: 7350
Human α4β7 integrin [7]
  fluorescence of bound RPMI 8866 cells: 6020
Human α4β7 integrin [8]
  fluorescence of bound RPMI 8866 cells: 6790
Human α4β7 integrin [9]
  fluorescence of bound RPMI 8866 cells: 46900
Human α4β7 integrin [10]
  fluorescence of bound RPMI 8866 cells: 2660
Human α4β7 integrin [11]
  fluorescence of bound RPMI 8866 cells: 4510
Human α4β7 integrin [12]
  fluorescence of bound RPMI 8866 cells: 5470

B1: murine MAdCAM-1 (receptor, UniProt Q61826 22-405, looked up)
chain: QSFQVNPPESEVAVAMGTSLQITCSMSCDEGVARVHWRGLDTSLGSVQTLPGSSILSVRGMLSDTGTPVCVGSCGSRSFQHSVKILVYAFPDQLVVSPEFLVPGQDQVVSCTAHNIWPADPNSLSFALLLGEQRLEGAQALEPEQEEEIQEAEGTPLFRMTQRWRLPSLGTPAPPALHCQVTMQLPKLVLTHRKEIPVLQSQTSPKPPNTTSAEPYILTSSSTAEAVSTGLNITTLPSAPPYPKLSPRTLSSEGPCRPKIHQDLEAGWELLCEASCGPGVTVRWTLAPGDLATYHKREAGAQAWLSVLPPGPMVEGWFQCRQDPGGEVTNLYVPGQVTPNSSSTVVLWIGSLVLGLLALVFLAYRLWKCYRPGPRPDTSSCTHL
notes: whole, on cells; Expressed on transiently transfected CHO/P cells; also called pCDMAD-7
Human α4β7 integrin [25]
  binding result: binds
Human α4β1 integrin
  binding result: no binding

B2: seven domain human VCAM-1 (receptor, UniProt P19320 25-739, looked up)
chain: FKIETTPESRYLAQIGDSVSLTCSTTGCESPFFSWRTQIDSPLNGKVTNEGTTSTLTMNPVSFGNEHSYLCTATCESRKLEKGIQVEIYSFPKDPEIHLSGPLEAGKPITVKCSVADVYPFDRLEIDLLKGDHLMKSQEFLEDADRKSLETKSLEVTFTPVIEDIGKVLVCRAKLHIDEMDSVPTVRQAVKELQVYISPKNTVISVNPSTKLQEGGSVTMTCSSEGLPAPEIFWSKKLDNGNLQHLSGNATLTLIAMRMEDSGIYVCEGVNLIGKNRKEVELIVQEKPFTVEISPGPRIAAQIGDSVMLTCSVMGCESPSFSWRTQIDSPLSGKVRSEGTNSTLTLSPVSFENEHSYLCTVTCGHKKLEKGIQVELYSFPRDPEIEMSGGLVNGSSVTVSCKVPSVYPLDRLEIELLKGETILENIEFLEDTDMKSLENKSLEMTFIPTIEDTGKALVCQAKLHIDDMEFEPKQRQSTQTLYVNVAPRDTTVLVSPSSILEEGSSVNMTCLSQGFPAPKILWSRQLPNGELQPLSENATLTLISTKMEDSGVYLCEGINQAGRSRKEVELIIQVTPKDIKLTAFPSESVKEGDTVIISCTCGNVPETWIILKKKAETGDTVLKSIDGAYTIRKAQLKDAGVYECESKNKVGSQLRSLTLDVQGRENNKDYFSPELLVLYFASSLIIPAIGMIIYFARKANMKGSYSLVEAQKSKV
notes: whole, on cells; Expressed on transiently transfected CHO/P cells; also called pCD3VCAM
Human α4β1 integrin
  binding result: binds
Human α4β7 integrin [26]
  binding result: no binding
